Assay results as given in patent US20050250692A1.

Experiments:
[1] = target: acidic pH binding sites of PEA-13 cells; assay: competition with 125I-α2M* binding to PEA-13 cells at acidic pH
[2] = target: acidic pH binding sites of Mv1Lu cells; assay: Scatchard plot analysis of 125I-α2M* binding to Mv1Lu cells at pH 5
[3] = target: acidic pH binding sites of Mv1Lu cells; assay: concentration dependence of 125I-α2M* binding to Mv1Lu cells at pH 5
[4] = target: acidic pH binding sites of MEF cells; assay: competition with 125I-α2M* binding to MEF cells at pH 5.5

- IC50 [1]: 120 nM
- Kd [2]: 51 nM
- sites/cell [2]: 1e+06 sites/cell
- saturating concentration [3]: 120 nM
- IC50 [4]: 50 nM
B1: α2M activated by methylamine (α2M*) (ligand, human, UniProt P01023 24-1474, looked up)
chain: SVSGKPQYMVLVPSLLHTETTEKGCVLLSYLNETVTVSASLESVRGNRSLFTDLEAENDVLHCVAFAVPKSSSNEEVMFLTVQVKGPTQEFKKRTTVMVKNEDSLVFVQTDKSIYKPGQTVKFRVVSMDENFHPLNELIPLVYIQDPKGNRIAQWQSFQLEGGLKQFSFPLSSEPFQGSYKVVVQKKSGGRTEHPFTVEEFVLPKFEVQVTVPKIITILEEEMNVSVCGLYTYGKPVPGHVTVSICRKYSDASDCHGEDSQAFCEKFSGQLNSHGCFYQQVKTKVFQLKRKEYEMKLHTEAQIQEEGTVVELTGRQSSEITRTITKLSFVKVDSHFRQGIPFFGQVRLVDGKGVPIPNKVIFIRGNEANYYSNATTDEHGLVQFSINTTNVMGTSLTVRVNYKDRSPCYGYQWVSEEHEEAHHTAYLVFSPSKSFVHLEPMSHELPCGHTQTVQAHYILNGGTLLGLKKLSFYYLIMAKGGIVRTGTHGLLVKQEDMKGHFSISIPVKSDIAPVARLLIYAVLPTGDVIGDSAKYDVENCLANKVDLSFSPSQSLPASHAHLRVTAAPQSVCALRAVDQSVLLMKPDAELSASSVYNLLPEKDLTGFPGPLNDQDNEDCINRHNVYINGITYTPVSSTNEKDMYSFLEDMGLKAFTNSKIRKPKMCPQLQQYEMHGPEGLRVGFYESDVMGRGHARLVHVEEPHTETVRKYFPETWIWDLVVVNSAGVAEVGVTVPDTITEWKAGAFCLSEDAGLGISSTASLRAFQPFFVELTMPYSVIRGEAFTLKATVLNYLPKCIRVSVQLEASPAFLAVPVEKEQAPHCICANGRQTVSWAVTPKSLGNVNFTVSAEALESQELCGTEVPSVPEHGRKDTVIKPLLVEPEGLEKETTFNSLLCPSGGEVSEELSLKLPPNVVEESARASVSVLGDILGSAMQNTQNLLQMPYGCGEQNMVLFAPNIYVLDYLNETQQLTPEIKSKAIGYLNTGYQRQLNYKHYDGSYSTFGERYGRNQGNTWLTAFVLKTFAQARAYIFIDEAHITQALIWLSQRQKDNGCFRSSGSLLNNAIKGGVEDEVTLSAYITIALLEIPLTVTHPVVRNALFCLESAWKTAQEGDHGSHVYTKALLAYAFALAGNQDKRKEVLKSLNEEAVKKDNSVHWERPQKPKAPVGHFYEPQAPSAEVEMTSYVLLAYLTAQPAPTSEDLTSATNIVKWITKQQNAQGGFSSTQDTVVALHALSKYGAATFTRTGKAAQVTIQSSGTFSSKFQVDNNNRLLLQQVSLPELPGEYSMKVTGEGCVYLQTSLKYNILPEKEEFPFALGVQTLPQTCDEPKAHTSFQISLSVSYTGSRSASNMAIVDVKMVSGFIPLKPTVKMLERSNHVSRTEVSSNHVLIYLDKVSNQTLSLFFTVLQDVPVRDLKPAIVKVYDYYETDEFAIAEYNAPCSKDLGNA
modifications: activated by methylamine; 125I-labelled where used as tracer
